According to patent US6429298:

Tested on: Modified p53 (human p53 engineered to contain the HIV-1 protease cleavage site VSFNFPQITL upstream o)

## HIV-1 protease
  SDS-PAGE migration of purified p53 fusion protein after co-expression with HIV-1 protease (cleavage): The mutagenized p53 migrated more quickly than the wild-type protein (as did p53Δ30), but only after coexpression with HIV-1 protease.
